Reference: publication PMC8259413

Biological target: DNA polymerase beta (Pol β) (rat, UniProt P06766 1-335)
Assay: NMR chemical shift titration

B1: 20-mer single-nucleotide gapped DNA (templating G) (dsDNA)
DNA 1: CGACCGACGGCGCATCAGCC
DNA 2: GGCTGATGCGC
DNA 3: GTCGGTCG
modifications: 5'-phosphate on downstream strand
B1: binds.
